From article PMC7954794 (2021)

B1: S. cerevisiae Abp1 (full length; SH3 domain 535-592 mutated) / Hua2 (parent complex)
chain 1: MALEPIDYTTHSREIDAEYLKIVRGSDPDTTWLIISPNAKKEYEPESTGSSFHDFLQLFDETKVQYGLARVSPPGSDVEKIIIIGWCPDSAPLKTRASFAANFAAVANNLFKGYHVQVTARDEDDLDENELLMKISNAAGARYSIQTSSKQQGKASTPPVKKSFTPSKSPAPVSKKEPVKTPSPAPAAKISSRVNDNNDDDDWNEPELKERDFDQAPLKPNQSSYKPIGKIDLQKVIAEEKAKEDPRLVQKPTAAGSKIDPSSDIANLKNESKLKRDSEFNSFLGTTKPPSMTESSLKNDDDKVIKGFRNEKSPAQLWAERKAKQNSGNAETKAEAPKPEVPEDEPEGEPDVKDLKSKFEGLAASEKEEEEMENKFAPPPKKSEPTIISPKPFSKPQEPVKAEEAEQPKTDYKKIGNPLPGMHIEADNEEEPEENDDDWDDDEDEAAQPPLPSRNVASGAPVQKEEPEQEEIAPSLPSRNSIPAPKQEEAPEQAPEEEIEEEAEEAAPQLPSRSSAAPPPPPRRATPEKKPKENPWATAEYDYDAAEDNELTFVENDKIINIEFVDDDWWLGELEKDGSKGLFPSNYVSLGN
chain 2: MQQTKFGKMYLDHDSVVEYSEDEIVEADRITLGYKKRLSMIENQMRHLLEDFSLDVQQIEPILADLQKYYDAFLQLLQKRNKSLQCKRSTHQPVPSPMNSQTSTNAKVNLSGKLMKFQLNSVQKFDEENILRILQNKIEFEHYFQIDKGKKQKVLLLAVYQCLNGPTRLHKVLNIEGIIHNNSIRTILGKQVSSSKWTVFLYDVKLVLLAHRQDVPNLETSKMIVRYGDLFPCALYFKDHTAY

Variants of: B1
Test: DHFR protein-fragment complementation in yeast (Abp1-DHFR F[1,2] x partner-DHFR F[3]), deep mutational scanning, second methotrexate selection vs reference; S. cerevisiae, DHFR-PCA selection in liquid with methotrexate at 30 C, two 72 h selections (the score uses the second); reference = the pre-selection culture

screen value	Variant
-0.471 DMS score: mean over two replicates of log2(f_test/f_ref + 0.5)/ln 2, minus the synonymous-codon median (not a log2 …	chain 1 T538N
-0.987 DMS score: mean over two replicates of log2(f_test/f_ref + 0.5)/ln 2, minus the synonymous-codon median (not a log2 …	chain 1 T538A
0.677 DMS score: mean over two replicates of log2(f_test/f_ref + 0.5)/ln 2, minus the synonymous-codon median (not a log2 …	chain 1 T538L
-2.97 DMS score: mean over two replicates of log2(f_test/f_ref + 0.5)/ln 2, minus the synonymous-codon median (not a log2 …	chain 1 D568S
-2.08 DMS score: mean over two replicates of log2(f_test/f_ref + 0.5)/ln 2, minus the synonymous-codon median (not a log2 …	chain 1 D568Y
-2.63 DMS score: mean over two replicates of log2(f_test/f_ref + 0.5)/ln 2, minus the synonymous-codon median (not a log2 …	chain 1 D568H
-2.05 DMS score: mean over two replicates of log2(f_test/f_ref + 0.5)/ln 2, minus the synonymous-codon median (not a log2 …	chain 1 D568N
-0.388 DMS score: mean over two replicates of log2(f_test/f_ref + 0.5)/ln 2, minus the synonymous-codon median (not a log2 …	chain 1 K558Q
0.204 DMS score: mean over two replicates of log2(f_test/f_ref + 0.5)/ln 2, minus the synonymous-codon median (not a log2 …	chain 1 K558L
-0.507 DMS score: mean over two replicates of log2(f_test/f_ref + 0.5)/ln 2, minus the synonymous-codon median (not a log2 …	chain 1 K558C
-0.942 DMS score: mean over two replicates of log2(f_test/f_ref + 0.5)/ln 2, minus the synonymous-codon median (not a log2 …	chain 1 K558E
-0.676 DMS score: mean over two replicates of log2(f_test/f_ref + 0.5)/ln 2, minus the synonymous-codon median (not a log2 …	chain 1 Y543H
0.254 DMS score: mean over two replicates of log2(f_test/f_ref + 0.5)/ln 2, minus the synonymous-codon median (not a log2 …	chain 1 Y543W
0.413 DMS score: mean over two replicates of log2(f_test/f_ref + 0.5)/ln 2, minus the synonymous-codon median (not a log2 …	chain 1 A546G
-0.179 DMS score: mean over two replicates of log2(f_test/f_ref + 0.5)/ln 2, minus the synonymous-codon median (not a log2 …	chain 1 A546V
0.4 DMS score: mean over two replicates of log2(f_test/f_ref + 0.5)/ln 2, minus the synonymous-codon median (not a log2 …	chain 1 N549D
0.763 DMS score: mean over two replicates of log2(f_test/f_ref + 0.5)/ln 2, minus the synonymous-codon median (not a log2 …	chain 1 N549L
2.18 DMS score: mean over two replicates of log2(f_test/f_ref + 0.5)/ln 2, minus the synonymous-codon median (not a log2 …	chain 1 N549C
1.15 DMS score: mean over two replicates of log2(f_test/f_ref + 0.5)/ln 2, minus the synonymous-codon median (not a log2 …	chain 1 N549Q

screen value	Variant
0.356 DMS score: mean over two replicates of log2(f_test/f_ref + 0.5)/ln 2, minus the synonymous-codon median (not a log2 …	chain 1 N549I
1.83 DMS score: mean over two replicates of log2(f_test/f_ref + 0.5)/ln 2, minus the synonymous-codon median (not a log2 …	chain 1 N549S
1.95 DMS score: mean over two replicates of log2(f_test/f_ref + 0.5)/ln 2, minus the synonymous-codon median (not a log2 …	chain 1 N549E
-2.72 DMS score: mean over two replicates of log2(f_test/f_ref + 0.5)/ln 2, minus the synonymous-codon median (not a log2 …	chain 1 S585P
-0.67 DMS score: mean over two replicates of log2(f_test/f_ref + 0.5)/ln 2, minus the synonymous-codon median (not a log2 …	chain 1 S585T
0.746 DMS score: mean over two replicates of log2(f_test/f_ref + 0.5)/ln 2, minus the synonymous-codon median (not a log2 …	chain 1 S585M
-1.85 DMS score: mean over two replicates of log2(f_test/f_ref + 0.5)/ln 2, minus the synonymous-codon median (not a log2 …	chain 1 S585G
1.03 DMS score: mean over two replicates of log2(f_test/f_ref + 0.5)/ln 2, minus the synonymous-codon median (not a log2 …	chain 1 S585C
-0.627 DMS score: mean over two replicates of log2(f_test/f_ref + 0.5)/ln 2, minus the synonymous-codon median (not a log2 …	chain 1 D542K
-0.772 DMS score: mean over two replicates of log2(f_test/f_ref + 0.5)/ln 2, minus the synonymous-codon median (not a log2 …	chain 1 D542F
0.0633 DMS score: mean over two replicates of log2(f_test/f_ref + 0.5)/ln 2, minus the synonymous-codon median (not a log2 …	chain 1 D542N
0.128 DMS score: mean over two replicates of log2(f_test/f_ref + 0.5)/ln 2, minus the synonymous-codon median (not a log2 …	chain 1 V554N
0.602 DMS score: mean over two replicates of log2(f_test/f_ref + 0.5)/ln 2, minus the synonymous-codon median (not a log2 …	chain 1 V554E
0.446 DMS score: mean over two replicates of log2(f_test/f_ref + 0.5)/ln 2, minus the synonymous-codon median (not a log2 …	chain 1 V554F
-0.0016 DMS score: mean over two replicates of log2(f_test/f_ref + 0.5)/ln 2, minus the synonymous-codon median (not a log2 …	chain 1 V554M
0.246 DMS score: mean over two replicates of log2(f_test/f_ref + 0.5)/ln 2, minus the synonymous-codon median (not a log2 …	chain 1 V554G
0.269 DMS score: mean over two replicates of log2(f_test/f_ref + 0.5)/ln 2, minus the synonymous-codon median (not a log2 …	chain 1 V554D
0.342 DMS score: mean over two replicates of log2(f_test/f_ref + 0.5)/ln 2, minus the synonymous-codon median (not a log2 …	chain 1 P535S
